For the assay, the system named is (CTA)12/(TAG)12 36-mer DNA duplex. Kind of assay: In vitro DNA methylation assay of DIM2 (WT or mutant). In kind it is biochemical. More on the design: DNA methylation activity: unit not given here. The following applies: 30 min, pH 8.0; for DNA methylation activity of DIM2 (in words): 1.0 µM DIM2, 30 °C; for DNA methylation activity: Fig. 6d, H3_1-24K9me3 binding-associated mutants, 1.0 µM DIM2, 1.0 µM DNA duplex, 30 °C.

B1: DIM2W261A/W581A: DIM2 with W261A/W581A double mutation (protein)
chain: MDSPDRSHGGMFIDVPAETMGFQEDYLDMFASVLSQGLAKEGDYAHHQPLPAGKEECLEPIAVATTITPSPDDPQLQLQLELEQQFQTESGLNGVDPAPAPESEDEADLPDGFSDESPDDDFVVQRSKHITVDLPVSTLINPRSTFQRIDENDNLVPPPQSTPERVAVEDLLKAAKAAGKNKEDYIEFELHDFNFYVNYAYHPQEMRPIQLVATKVLHDKYYFDGVLKYGNTKHYVTGMQVLELPVGNYGASLHSVKGQIAVRSKHNAKKEIYYLLKKPAFEYQRYYQPFLWIADLGKHVVDYCTRMVERKREVTLGCFKSDFIQWASKAHGKSKAFQNWRAQHPSDDFRTSVAANIGYIWKEINGVAGAKRAAGDQLFRELMIVKPGQYFRQEVPPGPVVTEGDRTVAATIVTPYIKECFGHMILGKVLRLAGEDAEKEKEVKLAKRLKIENKNATKADTKDDMKNDTATESLPTPLRSLPVQVLEATPIESDIVSIVSSDLPPSENNPPPLTNGSVKPKAKANPKPKPSTQPLHAAHVKYLSQELVNKIKVGDVISTPRDDSSNTDTKWKPTDTDDHRAFGLVQRVHTAKTKSSGRGLNSKSFDVIWFYRPEDTPCCAMKYKWRNELFLSNHCTCQEGHHARVKGNEVLAVHPVDWFGTPESNKGEFFVRQLYESEQRRWITLQKDHLTCYHNQPPKPPTAPYKPGDTVLATLSPSDKFSDPYEVVEYFTQGEKETAFVRLRKLLRRRKVDRQDAPANELVYTEDLVDVRAERIVGKCIMRCFRPDERVPSPYDRGGTGNMFFITHRQDHGRCVPLDTLPPTLRQGFNPLGNLGKPKLRGMDLYCGGGNFGRGLEEGGVVEMRWANDIWDKAIHTYMANTPDPNKTNPFLGSVDDLLRLALEGKFSDNVPRPGEVDFIAAGSPCPGFSLLTQDKKVLNQVKNQSLVASFASFVDFYRPKYGVLENVSGIVQTFVNRKQDVLSQLFCALVGMGYQAQLILGDAWAHGAPQSRERVFLYFAAPGLPLPDPPLPSHSHYRVKNRNIGFLCNGESYVQRSFIPTAFKFVSAGEGTADLPKIGDGKPDACVRFPDHRLASGITPYIRAQYACIPTHPYGMNFIKAWNNGNGVMSKSDRDLFPSEGKTRTSDASVGWKRLNPKTLFPTVTTTSNPSDARMGPGLHWDEDRPYTVQEMRRAQGYLDEEVLVGRTTDQWKLVGNSVSRHMALAIGLKFREAWLGTLYD
modifications: left off: His6, N-terminal, cleaved | MBP, N-terminal, cleaved
notes: DIM2 with W261A/W581A double mutation
For B1, the “DNA methylation activity of DIM2 (in words)” value is listed as “largely abolished the DNA methylation activity”. Further, the DNA methylation activity (replicate 1) turned out to be 0.373. For the same molecule, the DNA methylation activity (replicate 2) was determined as 0.344. The DNA methylation activity (replicate 3) is listed as 0.323.

B2: DIM2K362A: DIM2 with H3K9me3-binding site mutation in the RFTS domain (K362A) (protein)
chain: MDSPDRSHGGMFIDVPAETMGFQEDYLDMFASVLSQGLAKEGDYAHHQPLPAGKEECLEPIAVATTITPSPDDPQLQLQLELEQQFQTESGLNGVDPAPAPESEDEADLPDGFSDESPDDDFVVQRSKHITVDLPVSTLINPRSTFQRIDENDNLVPPPQSTPERVAVEDLLKAAKAAGKNKEDYIEFELHDFNFYVNYAYHPQEMRPIQLVATKVLHDKYYFDGVLKYGNTKHYVTGMQVLELPVGNYGASLHSVKGQIWVRSKHNAKKEIYYLLKKPAFEYQRYYQPFLWIADLGKHVVDYCTRMVERKREVTLGCFKSDFIQWASKAHGKSKAFQNWRAQHPSDDFRTSVAANIGYIWAEINGVAGAKRAAGDQLFRELMIVKPGQYFRQEVPPGPVVTEGDRTVAATIVTPYIKECFGHMILGKVLRLAGEDAEKEKEVKLAKRLKIENKNATKADTKDDMKNDTATESLPTPLRSLPVQVLEATPIESDIVSIVSSDLPPSENNPPPLTNGSVKPKAKANPKPKPSTQPLHAAHVKYLSQELVNKIKVGDVISTPRDDSSNTDTKWKPTDTDDHRWFGLVQRVHTAKTKSSGRGLNSKSFDVIWFYRPEDTPCCAMKYKWRNELFLSNHCTCQEGHHARVKGNEVLAVHPVDWFGTPESNKGEFFVRQLYESEQRRWITLQKDHLTCYHNQPPKPPTAPYKPGDTVLATLSPSDKFSDPYEVVEYFTQGEKETAFVRLRKLLRRRKVDRQDAPANELVYTEDLVDVRAERIVGKCIMRCFRPDERVPSPYDRGGTGNMFFITHRQDHGRCVPLDTLPPTLRQGFNPLGNLGKPKLRGMDLYCGGGNFGRGLEEGGVVEMRWANDIWDKAIHTYMANTPDPNKTNPFLGSVDDLLRLALEGKFSDNVPRPGEVDFIAAGSPCPGFSLLTQDKKVLNQVKNQSLVASFASFVDFYRPKYGVLENVSGIVQTFVNRKQDVLSQLFCALVGMGYQAQLILGDAWAHGAPQSRERVFLYFAAPGLPLPDPPLPSHSHYRVKNRNIGFLCNGESYVQRSFIPTAFKFVSAGEGTADLPKIGDGKPDACVRFPDHRLASGITPYIRAQYACIPTHPYGMNFIKAWNNGNGVMSKSDRDLFPSEGKTRTSDASVGWKRLNPKTLFPTVTTTSNPSDARMGPGLHWDEDRPYTVQEMRRAQGYLDEEVLVGRTTDQWKLVGNSVSRHMALAIGLKFREAWLGTLYD
modifications: left off: His6, N-terminal, cleaved | MBP, N-terminal, cleaved
As to B2, the “DNA methylation activity of DIM2 (in words)” value is “marked decrease of the DNA methylation activity”. Where the note is “replicate 1”, this molecule displayed a DNA methylation activity of 1.971. The molecule also gave a DNA methylation activity (replicate 2) of 1.588. The DNA methylation activity (replicate 3) was determined as 1.581.

B3: DIM2E649A: DIM2 with mutation in the BAH1 domain (E649A) (protein)
chain: MDSPDRSHGGMFIDVPAETMGFQEDYLDMFASVLSQGLAKEGDYAHHQPLPAGKEECLEPIAVATTITPSPDDPQLQLQLELEQQFQTESGLNGVDPAPAPESEDEADLPDGFSDESPDDDFVVQRSKHITVDLPVSTLINPRSTFQRIDENDNLVPPPQSTPERVAVEDLLKAAKAAGKNKEDYIEFELHDFNFYVNYAYHPQEMRPIQLVATKVLHDKYYFDGVLKYGNTKHYVTGMQVLELPVGNYGASLHSVKGQIWVRSKHNAKKEIYYLLKKPAFEYQRYYQPFLWIADLGKHVVDYCTRMVERKREVTLGCFKSDFIQWASKAHGKSKAFQNWRAQHPSDDFRTSVAANIGYIWKEINGVAGAKRAAGDQLFRELMIVKPGQYFRQEVPPGPVVTEGDRTVAATIVTPYIKECFGHMILGKVLRLAGEDAEKEKEVKLAKRLKIENKNATKADTKDDMKNDTATESLPTPLRSLPVQVLEATPIESDIVSIVSSDLPPSENNPPPLTNGSVKPKAKANPKPKPSTQPLHAAHVKYLSQELVNKIKVGDVISTPRDDSSNTDTKWKPTDTDDHRWFGLVQRVHTAKTKSSGRGLNSKSFDVIWFYRPEDTPCCAMKYKWRNELFLSNHCTCQEGHHARVKGNAVLAVHPVDWFGTPESNKGEFFVRQLYESEQRRWITLQKDHLTCYHNQPPKPPTAPYKPGDTVLATLSPSDKFSDPYEVVEYFTQGEKETAFVRLRKLLRRRKVDRQDAPANELVYTEDLVDVRAERIVGKCIMRCFRPDERVPSPYDRGGTGNMFFITHRQDHGRCVPLDTLPPTLRQGFNPLGNLGKPKLRGMDLYCGGGNFGRGLEEGGVVEMRWANDIWDKAIHTYMANTPDPNKTNPFLGSVDDLLRLALEGKFSDNVPRPGEVDFIAAGSPCPGFSLLTQDKKVLNQVKNQSLVASFASFVDFYRPKYGVLENVSGIVQTFVNRKQDVLSQLFCALVGMGYQAQLILGDAWAHGAPQSRERVFLYFAAPGLPLPDPPLPSHSHYRVKNRNIGFLCNGESYVQRSFIPTAFKFVSAGEGTADLPKIGDGKPDACVRFPDHRLASGITPYIRAQYACIPTHPYGMNFIKAWNNGNGVMSKSDRDLFPSEGKTRTSDASVGWKRLNPKTLFPTVTTTSNPSDARMGPGLHWDEDRPYTVQEMRRAQGYLDEEVLVGRTTDQWKLVGNSVSRHMALAIGLKFREAWLGTLYD
modifications: left off: His6, N-terminal, cleaved | MBP, N-terminal, cleaved
As to B3, the “DNA methylation activity of DIM2 (in words)” value is recorded as “marked decrease of the DNA methylation activity”. Also, where the note is “replicate 1”, the DNA methylation activity is reported as 3.26. Under “replicate 2”, this molecule came in with a DNA methylation activity of 3.183. The same molecule had a DNA methylation activity (replicate 3) of 3.28.

Values taken from publication PMC11315935, “Multi-layered heterochromatin interaction as a switch for DIM2-mediated DNA methylation” (Nature Communications, 2024).
